# Measured values published in publication PMC6305486.
# B1: GST-fused e5-FtsB_(25–103)/k5-FtsL_(64–121) complex (WT), P0A6S5;P0AEN4 E68A (protein)
# chain 1: GIHDYTRVNDDVAAQQATNAKLKARNDQLFAEIDDLNGGQEALAERARNELSMTRPGETFYRLVPDASKRAQSAGQNNR
# chain 2: TAQREQLVLERDALDIEWRNLILEENALGDHSRVERIATEKLQMQHVDPSQENIVVQK
# Target: FtsQ_(50–276), P06136
# Assay: BLI
# Details: chain shown with the change; GST-e5-FtsB (mutant) in complex with k5-FtsL immobilized; FtsQ analyte 0-60 µM; parent: 0.24 ± 0.01
# Sequence of FtsQ_(50–276), P06136 (P06136 50-276): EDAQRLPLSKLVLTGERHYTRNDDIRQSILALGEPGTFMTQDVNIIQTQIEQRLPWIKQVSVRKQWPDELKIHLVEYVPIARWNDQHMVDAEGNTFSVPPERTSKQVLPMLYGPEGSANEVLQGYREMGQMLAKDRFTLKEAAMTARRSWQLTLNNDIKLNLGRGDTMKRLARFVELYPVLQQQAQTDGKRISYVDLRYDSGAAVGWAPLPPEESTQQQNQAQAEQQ
binder,measurement,value
B1,Kd,2.4 µM
